By IC50 is commonly meant the concentration that gives 50% inhibition.

Assay [1] deals with T1, human MCAM V340A mutant (shotgun mutagenesis library, on BHK cells) (human, UniProt P43121 24-646).
T1 chain: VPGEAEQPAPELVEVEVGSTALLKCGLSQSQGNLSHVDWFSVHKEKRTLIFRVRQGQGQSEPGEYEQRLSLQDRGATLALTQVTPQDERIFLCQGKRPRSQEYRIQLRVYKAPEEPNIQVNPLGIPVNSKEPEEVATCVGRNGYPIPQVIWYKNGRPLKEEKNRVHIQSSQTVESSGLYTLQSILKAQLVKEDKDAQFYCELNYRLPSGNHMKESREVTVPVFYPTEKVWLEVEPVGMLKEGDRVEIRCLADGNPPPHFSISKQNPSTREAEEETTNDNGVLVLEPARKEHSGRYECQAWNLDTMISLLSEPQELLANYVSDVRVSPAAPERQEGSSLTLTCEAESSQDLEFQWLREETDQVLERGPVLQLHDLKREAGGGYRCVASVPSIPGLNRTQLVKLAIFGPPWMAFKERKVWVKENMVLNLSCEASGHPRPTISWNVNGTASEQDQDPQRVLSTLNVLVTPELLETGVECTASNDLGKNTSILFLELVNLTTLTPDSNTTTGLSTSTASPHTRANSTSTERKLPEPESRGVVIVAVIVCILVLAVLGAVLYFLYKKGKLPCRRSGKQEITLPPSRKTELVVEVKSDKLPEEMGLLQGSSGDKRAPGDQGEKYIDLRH
In words: shotgun mutagenesis library, immunofluorescence on BHK cells, 0.5 µg/mL antibody. On the procedure: Secondary antibodies from Jackson ImmunoResearch were used at 1:400 for MAb and sera detection.
(§1) The mutation library was assayed for surface expression (mouse sera binding) and monoclonal antibody binding, in triplicate. Each raw data point was background-subtracted and normalized to the wild type MCAM reactivity values. The mean monoclonal antibody binding value for each clone is plotted as a function of its mean surface expression value (FIG. 1, gray diamonds). Thresholds of <30% monoclonal antibody reactivity and >50% mouse sera binding were applied to identify clones (FIG. 1, black diamonds) that were negative for monoclonal antibody binding but positive for surface expression.

The target in assay [2] is T2, human MCAM C272A mutant (shotgun mutagenesis library, on BHK cells) (human, UniProt P43121 24-646).
T2 chain: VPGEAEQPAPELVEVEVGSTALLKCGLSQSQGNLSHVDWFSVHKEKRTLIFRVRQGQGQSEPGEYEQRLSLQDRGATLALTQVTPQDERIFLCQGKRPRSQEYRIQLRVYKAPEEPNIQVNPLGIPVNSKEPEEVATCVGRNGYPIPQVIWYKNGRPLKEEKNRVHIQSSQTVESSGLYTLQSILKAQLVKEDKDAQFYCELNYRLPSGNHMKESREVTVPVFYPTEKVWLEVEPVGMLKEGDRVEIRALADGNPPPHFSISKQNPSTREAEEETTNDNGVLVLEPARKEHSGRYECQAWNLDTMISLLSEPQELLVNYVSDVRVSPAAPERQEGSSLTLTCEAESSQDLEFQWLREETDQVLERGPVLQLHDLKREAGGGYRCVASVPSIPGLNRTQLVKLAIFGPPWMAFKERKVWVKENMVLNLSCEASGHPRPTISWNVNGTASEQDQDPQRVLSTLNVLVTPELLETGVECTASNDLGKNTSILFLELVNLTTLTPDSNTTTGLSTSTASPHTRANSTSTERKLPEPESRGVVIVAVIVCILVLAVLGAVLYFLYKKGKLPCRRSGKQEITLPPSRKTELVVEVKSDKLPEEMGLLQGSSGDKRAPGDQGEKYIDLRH
Nature of the assay: shotgun mutagenesis library, immunofluorescence on BHK cells, triplicate, background-subtracted and normalized to WT. The protocol:
as §1
Residues involved in antibody binding were identified as those that were negative for monoclonal antibody binding (<30% WT) but positive for surface expression (>50% WT) (Table 4). The mean reactivity (and standard deviation) were determined for each critical residue.

For assay [3], the target named is T3, human MCAM, full length, expressed on transfected cells (human, UniProt P43121 24-646).
T3 construct: also called CD146; MUC18
T3 chain: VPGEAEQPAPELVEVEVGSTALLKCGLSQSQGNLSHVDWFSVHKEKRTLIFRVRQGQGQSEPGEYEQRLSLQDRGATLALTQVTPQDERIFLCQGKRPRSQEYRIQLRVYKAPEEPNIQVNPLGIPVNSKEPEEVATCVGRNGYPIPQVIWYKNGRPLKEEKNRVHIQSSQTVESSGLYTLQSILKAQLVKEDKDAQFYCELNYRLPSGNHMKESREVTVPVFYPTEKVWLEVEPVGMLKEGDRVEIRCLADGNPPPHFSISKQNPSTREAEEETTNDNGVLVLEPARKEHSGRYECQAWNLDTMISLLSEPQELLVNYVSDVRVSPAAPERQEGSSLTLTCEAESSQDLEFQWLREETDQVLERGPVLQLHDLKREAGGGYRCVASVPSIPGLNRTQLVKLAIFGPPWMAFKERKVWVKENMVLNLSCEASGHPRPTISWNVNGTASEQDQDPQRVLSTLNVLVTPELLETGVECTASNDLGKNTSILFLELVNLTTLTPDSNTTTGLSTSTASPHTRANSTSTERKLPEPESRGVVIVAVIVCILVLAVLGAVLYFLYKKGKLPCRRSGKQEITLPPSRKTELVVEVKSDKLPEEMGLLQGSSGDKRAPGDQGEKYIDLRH
Nature of the assay: flow cytometry, blocking of recombinant human laminin 411 (20 ug/ml) binding to CHO cells expressing human MCAM. The protocol:
The 87 independent mouse fusion clones and 26 independent rat fusion clones described in Example 1 above as being capable of (i) binding to human MCAM, and (ii) blocking the interaction between human MCAM and the α-4 chain of laminin were further characterized as follows. First, IC50 quantitation for the ability of the monoclonal antibody to block the binding of human MCAM to the α-4 chain of laminin was determined as follows. CHO cells expressing human MCAM were incubated with an anti-human MCAM antibody (at various concentrations) for 30 minutes at 4 degrees Celsius. […] Unbound laminin was then washed away, and the laminin bound to the surface of the cells was detected with fluorescently labeled anti-laminin antibodies. After washing, the amount of laminin bound to the surface was detected by flow cytometry, and IC50s were calculated based on the mean fluorescent intensity.
Amino acid and nucleic acid sequences of the heavy and light chains of these antibodies, and their hypervariable regions, are provided in SEQ ID NOs:29-92. […] As such, each of these specific monoclonal antibodies was very capable of binding to human MCAM and inhibiting the interaction of cell-expressed human MCAM with its α-4 laminin binding ligand.
(A flow cytometer gives signals particle by particle.)

B1: mouse anti-human MCAM monoclonal antibody clone 1749.1.3 (antibody, V domains shown)
VH: DVKLVESGGDLVKPGGSLKLSCAASGFTFSSYIMSWVRQTPEKRLEWVATISSGGSSTYYPDSVKGRFTISRDNAKNTLYLQMSSLKSEDTAMYYCTRDDDYDVKVFAYWGQGTLVTVSA
VL: DIVMSQSPSSLAVSAGEKVTMNCKSSRSLLNSRIRKNYLAWYQQKPGQSPKLLIYWASTRESGVPDRFTGSGSGTDFTLTISSVQAEDLAVYYCKQSYNLLTFGAGTKLELK
notes: Mouse hybridoma monoclonal antibody; also called m1749
Regarding B1, the binding result in assay [1] was “no binding (tested: <30% WT)”. Besides, the “mean reactivity (% of wild type MCAM), standard deviation in brackets” value in assay [2] was 7.6 % of WT. Moreover, the IC50 in assay [3] was 0.545 µg/mL.

For the origin of these results see patent US20170129954A1 (PROTHENA BIOSCIENCES, published 2017).
